# Experimental data: the supplement of paper PMC9112550, “Optimization of the antimicrobial peptide Bac7 by deep mutational scanning” (BMC Biology, 2022)
# Test system: Escherichia coli TOP10
# Experiment: shrunken log2 fold change of peptide-encoding DNA abundance (4.5 h post-induction vs induction); higher = less antimicrobial activity (less host growth inhibition)
# Conditions: time post-induction: 4.5 h; library: site-saturation at positions 5, 18, 19, 20
# 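Note: peptides expressed intracellularly from a pBAD plasmid library in pooled LB shake-flask culture, induced with 0.3% L-arabinose, DNA abundance read by NGS, three biological replicates, DESeq2 with apeglm shrinkage.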
row,Sequence,shrunken log2 fold change
1,RRIRLRPPRLPRPRPRPMGVPRP,-0.0231
2,RRIRWRPPRLPRPRPRPHVGPRP,0.0547
3,RRIRVRPPRLPRPRPRPMEPPRP,0.0643
4,RRIRWRPPRLPRPRPRPIFQPRP,-0.103
5,RRIRSRPPRLPRPRPRPDRAPRP,0.611
6,RRIRERPPRLPRPRPRPQRYPRP,-0.222
7,RRIRQRPPRLPRPRPRPFNMPRP,0.00759
8,RRIRVRPPRLPRPRPRPVACPRP,0.167
9,RRIRQRPPRLPRPRPRPPAGPRP,0.866
10,RRIRMRPPRLPRPRPRPQLAPRP,0.598
11,RRIRTRPPRLPRPRPRPVQFPRP,-0.0192
12,RRIRVRPPRLPRPRPRPDNFPRP,0.0216
13,RRIRARPPRLPRPRPRPCHLPRP,-0.171
14,RRIRIRPPRLPRPRPRPQLDPRP,-0.138
15,RRIRSRPPRLPRPRPRPNLKPRP,0.087
16,RRIRHRPPRLPRPRPRPMQQPRP,-0.174
17,RRIRVRPPRLPRPRPRPVKLPRP,-0.407
18,RRIRTRPPRLPRPRPRPSFWPRP,0.277
19,RRIRQRPPRLPRPRPRPMKAPRP,0.181
20,RRIRVRPPRLPRPRPRPDKGPRP,-0.591
21,RRIRQRPPRLPRPRPRPTDLPRP,0.0327
22,RRIRKRPPRLPRPRPRPVEKPRP,-0.0124
23,RRIRNRPPRLPRPRPRPIYNPRP,-0.642
24,RRIRDRPPRLPRPRPRPETIPRP,0.17
25,RRIRRRPPRLPRPRPRPGEWPRP,0.701

row,Sequence,shrunken log2 fold change
1,RRIRKRPPRLPRPRPRPRIFPRP,-0.0494
2,RRIRDRPPRLPRPRPRPTMGPRP,1.05
3,RRIRWRPPRLPRPRPRPQQFPRP,-0.262
4,RRIRGRPPRLPRPRPRPADWPRP,1.03
5,RRIRNRPPRLPRPRPRPPCEPRP,0.0665
6,RRIRIRPPRLPRPRPRPKVNPRP,-0.647
7,RRIRSRPPRLPRPRPRPWNSPRP,-0.19
8,RRIRCRPPRLPRPRPRPKHHPRP,-0.32
9,RRIRTRPPRLPRPRPRPHVCPRP,-0.04
10,RRIRNRPPRLPRPRPRPITDPRP,-1.28
11,RRIRHRPPRLPRPRPRPAGDPRP,0.309
12,RRIRVRPPRLPRPRPRPAGMPRP,-0.0507
13,RRIRRRPPRLPRPRPRPHNDPRP,1.99
14,RRIRARPPRLPRPRPRPAYMPRP,-0.64
15,RRIRKRPPRLPRPRPRPAFRPRP,0.576
16,RRIRSRPPRLPRPRPRPHPQPRP,0.0419
17,RRIRLRPPRLPRPRPRPAATPRP,0.379
18,RRIRKRPPRLPRPRPRPVHQPRP,0.305
19,RRIRARPPRLPRPRPRPDIIPRP,0.363
20,RRIRVRPPRLPRPRPRPAWGPRP,0.515
21,RRIRVRPPRLPRPRPRPAHMPRP,-0.103
22,RRIRWRPPRLPRPRPRPLLAPRP,1.03
23,RRIRCRPPRLPRPRPRPQQEPRP,-0.051
24,RRIRSRPPRLPRPRPRPGFVPRP,0.287
25,RRIRVRPPRLPRPRPRPENIPRP,-0.125

row,Sequence,shrunken log2 fold change
1,RRIRLRPPRLPRPRPRPEFGPRP,0.07
2,RRIRARPPRLPRPRPRPASWPRP,0.537
3,RRIRRRPPRLPRPRPRPSWYPRP,0.363
4,RRIRARPPRLPRPRPRPADDPRP,0.409
5,RRIRQRPPRLPRPRPRPHEGPRP,-0.0113
6,RRIRLRPPRLPRPRPRPHTMPRP,-1.13
7,RRIRCRPPRLPRPRPRPLDNPRP,-0.235
8,RRIRVRPPRLPRPRPRPHNQPRP,-0.471
9,RRIRTRPPRLPRPRPRPMHLPRP,-0.318
10,RRIRCRPPRLPRPRPRPGICPRP,-0.0835
11,RRIRKRPPRLPRPRPRPIKNPRP,-0.188
12,RRIRSRPPRLPRPRPRPDYIPRP,-0.443
13,RRIRRRPPRLPRPRPRPMRDPRP,0.62
14,RRIRRRPPRLPRPRPRPQYEPRP,-0.00402
15,RRIRERPPRLPRPRPRPGSDPRP,-0.369
16,RRIRNRPPRLPRPRPRPGCFPRP,0.126
17,RRIRVRPPRLPRPRPRPHLDPRP,0.0818
18,RRIRTRPPRLPRPRPRPFFDPRP,-0.429
19,RRIRRRPPRLPRPRPRPKKGPRP,0.403
20,RRIRWRPPRLPRPRPRPGQDPRP,0.334
21,RRIRMRPPRLPRPRPRPAWLPRP,0.818
22,RRIRPRPPRLPRPRPRPCYLPRP,-0.958
23,RRIRIRPPRLPRPRPRPKKMPRP,0.222
24,RRIRLRPPRLPRPRPRPEKFPRP,-0.175
25,RRIRWRPPRLPRPRPRPSYHPRP,-0.568

row,Sequence,shrunken log2 fold change
1,RRIRIRPPRLPRPRPRPTEEPRP,0.146
2,RRIRCRPPRLPRPRPRPKTIPRP,-0.141
3,RRIRKRPPRLPRPRPRPDLQPRP,0.0789
4,RRIRNRPPRLPRPRPRPQYIPRP,-0.0546
5,RRIRTRPPRLPRPRPRPAVAPRP,0.422
6,RRIRNRPPRLPRPRPRPEILPRP,-0.0178
7,RRIRNRPPRLPRPRPRPFRVPRP,-0.17
8,RRIRKRPPRLPRPRPRPACSPRP,0.341
9,RRIRYRPPRLPRPRPRPWYPPRP,-0.485
10,RRIRFRPPRLPRPRPRPAINPRP,-0.239
11,RRIRARPPRLPRPRPRPCPYPRP,-0.359
12,RRIRIRPPRLPRPRPRPVWTPRP,-0.273
13,RRIRDRPPRLPRPRPRPNLPPRP,-0.0303
14,RRIRRRPPRLPRPRPRPFPAPRP,0.731
15,RRIRIRPPRLPRPRPRPPRFPRP,0.0593
16,RRIRLRPPRLPRPRPRPEHEPRP,0.13
17,RRIRERPPRLPRPRPRPGKGPRP,0.208
18,RRIRARPPRLPRPRPRPDTIPRP,0.103
19,RRIRVRPPRLPRPRPRPITWPRP,-0.182
20,RRIRVRPPRLPRPRPRPMHEPRP,-0.044
21,RRIRHRPPRLPRPRPRPWAAPRP,-0.0958
22,RRIRHRPPRLPRPRPRPFISPRP,-0.387
23,RRIRFRPPRLPRPRPRPKFCPRP,0.00718
24,RRIRYRPPRLPRPRPRPVGGPRP,-0.179
25,RRIRWRPPRLPRPRPRPSIQPRP,-0.0487

row,Sequence,shrunken log2 fold change
1,RRIRHRPPRLPRPRPRPDILPRP,-0.0904
2,RRIRSRPPRLPRPRPRPPVPPRP,0.378
3,RRIRCRPPRLPRPRPRPKWVPRP,0.0707
4,RRIRIRPPRLPRPRPRPHSDPRP,-0.439
5,RRIRDRPPRLPRPRPRPTMTPRP,0.334
6,RRIRPRPPRLPRPRPRPRGPPRP,0.545
7,RRIRSRPPRLPRPRPRPISKPRP,-0.211
8,RRIRFRPPRLPRPRPRPDLSPRP,-0.0807
9,RRIRKRPPRLPRPRPRPYKFPRP,-0.0374
10,RRIRERPPRLPRPRPRPNRDPRP,-0.192
11,RRIRDRPPRLPRPRPRPSTCPRP,-0.0465
12,RRIRERPPRLPRPRPRPNEVPRP,0.0321
13,RRIRFRPPRLPRPRPRPASWPRP,0.026
14,RRIRCRPPRLPRPRPRPCHAPRP,-0.191
15,RRIRNRPPRLPRPRPRPIGPPRP,-0.181
16,RRIRLRPPRLPRPRPRPQRYPRP,-0.307
17,RRIRCRPPRLPRPRPRPLDCPRP,0.0147
18,RRIRDRPPRLPRPRPRPVVDPRP,0.104
19,RRIRIRPPRLPRPRPRPTQHPRP,0.0549
20,RRIRKRPPRLPRPRPRPESHPRP,-0.00766
21,RRIRIRPPRLPRPRPRPCIQPRP,-0.185
22,RRIRTRPPRLPRPRPRPQHEPRP,-0.00128
23,RRIRNRPPRLPRPRPRPWPQPRP,-0.064
24,RRIRKRPPRLPRPRPRPDDDPRP,3.89
25,RRIRCRPPRLPRPRPRPDQVPRP,-0.183

row,Sequence,shrunken log2 fold change
1,RRIRIRPPRLPRPRPRPWIIPRP,-0.207
2,RRIRVRPPRLPRPRPRPGYHPRP,-0.364
3,RRIRCRPPRLPRPRPRPIIQPRP,-0.465
4,RRIRMRPPRLPRPRPRPTDKPRP,0.851
5,RRIRHRPPRLPRPRPRPFCQPRP,-0.243
6,RRIRLRPPRLPRPRPRPGFFPRP,0.0646
7,RRIRRRPPRLPRPRPRPIWPPRP,0.664
8,RRIRCRPPRLPRPRPRPCSVPRP,-0.177
9,RRIRYRPPRLPRPRPRPWTRPRP,0.0101
10,RRIRCRPPRLPRPRPRPEWFPRP,0.000144
11,RRIRERPPRLPRPRPRPSSHPRP,-0.0471
12,RRIRLRPPRLPRPRPRPCCLPRP,-0.293
13,RRIRDRPPRLPRPRPRPEWLPRP,0.382
14,RRIRHRPPRLPRPRPRPDVTPRP,-0.0437
15,RRIRMRPPRLPRPRPRPRHVPRP,0.437
16,RRIRERPPRLPRPRPRPAETPRP,0.0123
17,RRIRTRPPRLPRPRPRPFWQPRP,0.0872
18,RRIRVRPPRLPRPRPRPQAPPRP,0.167
19,RRIRIRPPRLPRPRPRPWNVPRP,-0.00149
20,RRIRNRPPRLPRPRPRPSKNPRP,-0.267
21,RRIRYRPPRLPRPRPRPSVKPRP,-0.119
22,RRIRLRPPRLPRPRPRPSNRPRP,-0.599
23,RRIRMRPPRLPRPRPRPEYKPRP,0.359
24,RRIRRRPPRLPRPRPRPASPPRP,0.314
25,RRIRWRPPRLPRPRPRPWGEPRP,0.039
